Assay: yeast display, Sf9 membrane polyspecificity reagent, FACS + sequencing; frameworks hold sequencing errors
Summary of the method: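 A synthetic nanobody library was expressed on Saccharomyces cerevisiae BJ5465 by galactose induction for 36–48 hours. The library was stained for 1 hour at 4 °C with 10% biotinylated, detergent-solubilized Sf9 membrane reagent and enriched with streptavidin microbeads before FACS. Low and high (top ~1%) gates were set on anti-HA fluorescence for expression and streptavidin fluorescence for reagent binding, and each polyreactivity label reflects the gate of origin.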

Row | Sequence | polyreactivity (PSR sort gate)
1 | QVQLVESGGGLVQAGGSLRLSCAASGRTFGFNVMGWYRQAPGKERELVAAISWSGGSTYYADSVKGRFTISRDNAKNTVYLQLNSLKPADTAVYYCNKRYVHRYGYWGQGTQVTVSS | low polyreactivity
2 | QVQLVESGGGLVQAGGSLRLSCAASGSIFPIYAMGWYRQATGKERELVAAINSGGGTNYADSVKGRFTISRDNAKNTVYLQMNSLKPEDTAVYYCAKSRYDYTKTEGGYWGQGTQVTVSS | low polyreactivity
3 | QVQLVESGGGLVQAGGSLRLSCAASGFIFPAYAMGWYRPAPGKERELVAAISKSGGRTYYADSVKGRFTISRDNAKNTVYIQMKSLKPEYTAVYYCDARMYNYDTSSSFDYWGQGTQVTVSS | high polyreactivity
4 | QVQLVESGGGLVQAGGSLRLSCAASGSIFPVNAMGLYRQAPGKERELVAAITASGDSTYYADSVKGRFTISRDNAKNTVYLQMNSLKPEDTAVYYCNADGSYENREVYSFYYWGQGTQVTVSS | low polyreactivity
5 | QVQLVESGGGLVQAGGSLRLSCAASGNAMGWYRQAPGKERELVASINRSGGSTYYADSVKGRFTISRDNAKNTVYLQMNSLIPEDTAVYSCNTDVGATVEDDYWGQGTQVTVSS | low polyreactivity
6 | QDQLVESVGGLVQAGGSLRLSCAASGRIVKYAMGWYRQAPGKERELVAAISGSGGTTYYADSVKWRFTISRDNAKNTVYLQMNSQKPEDTAVYYCNKTPRNLRILQHSSQSMDYWGQGTQVTVSS | high polyreactivity
7 | QVQLVDSGGGLVQAGGSLRLSSAASGRTLVNYAMGCYRQAPGKERELVAAISYSGGSTYYADSVKGRFTISRDNAKNTVYLQMNSLKPEDTAVYYCAAYYYQRYDYWGQGTQVTVSS | high polyreactivity
8 | QVQLVESGGGLVQAGGSLRLSCAASGSTLLTYTMGWYRQAPGKERELVASITTSGGSTYYADSVKGRFTSSRDNAKNTVYLQMNSLKPEDTAVYYWGQGTQVTVSS | low polyreactivity
9 | QVQLVESGGGLVQAGGSLRLSCAASGIIFRNYAMGWYRQAPGKEREFVASITKRGGSTYYADSVKGRFTISRDNAKNTVYLQMNSLKPEDTAVYYCNTQWYRGRTEYGYWGQGTQVTVSS | high polyreactivity
10 | QVQLVESGGGLVQAGGSLRLSCAASGSIFPVYAMGWYRQAPGKERELVAAITWRSGSTYYADSVKGRFTISRDNAKNTVYLQMNSLKPDDTAVYYCAKVPTYRFDHWGQGTQVTVSS | high polyreactivity
11 | QVQLVESGGGLVQAGGSLRLSCAASGYIFGQNAMGWYRPAPRKERELVASISDGGSTYYADSVKGRFTISRDNAKNTVYLQMNSLKPEDTAVYYCAAGQYWGEKALGAWLFDYWGQGTQLTVSS | low polyreactivity
12 | QVQLGESGGGLVQAGGSLRLSCDASGTSNPYNAMGWYRQAPGKERELVATISTNDGSTYYADSVKGRFTISRDNEKNTVYLQMNSLKPDDTAVYYCASRGFARYWGQRTQVTVSS | low polyreactivity
13 | QVQLVESGGGLVQAGGSLRLSCAASGSTFYLYTMGWYRQAPGKERELVAAINRSGGRTYYADSVKGRFTISRDNAKNTVYLQMNSLKPEDTAVYYCAADLASYAYRYDYWGQGTQVTVSS | high polyreactivity
14 | QFQLVESGGGLVQAGGSLRLSCAASGRIFKTYTMGWYRQAPGKERELVAVITSGGGTYYADSVKGRFTISRDNAKNTVYLQMNSLKPEDTAVYYCAARGMESPYGYWGQGTQVTVSS | low polyreactivity
15 | QVQHVESGGGLVQAGGSLRLSCAASGSTFYYYAMGWYRQARGKERELVATISRSTARTFYADSVKGRFTISRDNAKITVYLQMNSLKPEDTAVYYCAREYYYRRGFFLRGYWGQGTQVTVSS | high polyreactivity
16 | QVQLVESGGGLVQAGGSLRLSCAASGRIFGVNAMGWYRQAPGKERELVAAISRSGGSTYYADSVKGRFTISRDNAKNTVYLQMNSRKPEDTAVYYCATDHFYYRQKYWAYYYWGQGTQVTVSS | high polyreactivity
17 | QVQLVESGGGLVQAGGSLRLSCAASGSTFRGYTMGWYRQAPGKERELVATISYRSGSTSYADSVKGRFTISRDNAKNTVYLQMNSLKPEDTAVYYCNRVYSKPRYYYWGQGTQVTVSS | high polyreactivity
18 | QVQLVESGGGIVQAGGSLRLSCAATGRIFTGYTMGWYRQAPGKERELVAAISQSGGRTYYADSVKGRFTISRDNAKHTVYLQMNSLKPEDTAVYYCAAVWSRTGYDYCGQGTQVTVSS | high polyreactivity
19 | QVQLVESGGGLVQAGGSLRLSCAASGITIYIYAMGWYRQAPGKERELVAAISDVGSTHYADSVKGRFTISRDNAKNTVYLQMNSLKPEDTAVYYCNADYYWFFVFFDYDYWGQGTQVSVSS | low polyreactivity
20 | QVQLVESGGGLVQAGGSLRLSCAASGSTFLRYAMGWYREAPGTERELVAAISVSGGSTYYADSVKGRFTISRDNAKNTVYLQMNSLKPEYTAVYYCIAVTKFHRRYNYWGQGTQVTVSS | high polyreactivity
21 | QVQLVESGGGLVQAGGSLRLICAASGSIFGYNAMVWYRQAPGKERELVAVINASGASTYYADSVKGRFTISRDNAKNTVYLHMNSLKPEDTAVYSCAKDPFPFPGGDYWGQGTQVTVSS | low polyreactivity
22 | QVQLVESGGGLVQAGGSLRLSCAASGSIFLYYTMGWYRQEPGKERELVAAITWSGASTYYADSVKGRFTISRDNAKNTVYLQMNSLKPEDTAVYYCATRYRYRYWGQGTQVTVSS | high polyreactivity

Row | Sequence | polyreactivity (PSR sort gate)
23 | QDQLEESGGGLSQAGGSLRLSCAASGINFPSYTMGWSRQATGKERELVAAIDSGGSTYYADSVKGRFTISRDNAKNSVYLQMNSLIPEDTAVYYCAAEPDTYWYTYDYWGQGTQVSVSS | low polyreactivity
24 | QVQLVESGGGLVQAGGSLRLSCAASGSIFPQYAMGWYRQAPGKERELVAAISWSGGRTYYADSVKGRFTISRDNAKNTVYIQMNSLKPEDTAVYYCNRLYRRWYGREDDYWGQGTQVTVSS | high polyreactivity
25 | QVQLVESGGGLVQAGGSLRLSCAASGRTFPGYAMGWYREAPGKERELVAAISSSGGSTYYADSVKGRFTISRDNAKNTVYFQMNSLKPEVTAVYSCAVPYWYGRGHCYWGQGTQVTVSS | low polyreactivity
26 | QVQLVESGGGLVQAGGSLRLSCAASGSILSYYAMGWYRQAPGKERELVAAISKSGGRTYYADSVKGRFTISRDNAKNTVYLQMNSLKPEETAVYYCAAEIVVFYSEGQRNTFYYWGQGTQVTVSS | high polyreactivity
27 | QVQLVESGGGLVQAGGSLRLSCAASGSIFYKNVMGWYRQAPGKEREFVAAISSSGGSTYYADSVKGRFTISRDNAKNTVYLQMNSLKPEDTAVYYCAATGWGLFRRRYDYWGQGTQVTVSS | low polyreactivity
28 | QVQLVESGGGLVQAGGSLSLSCAASGFTFSWNAMGWYSQAPGKERELVATITRSGSTYYADSVKGRFTISRDNSKNTVYLQMNSLKPEDTAVYYCAVVSWYRYSRYVNDYWGQGTQVTVSS | high polyreactivity
29 | QVQLVESGGGLVQAGGSLRLSCAASGRIFYSNAMGWYRQAPGKERELVAAISGSTDSTYYADSVKGRFTISRDNAKNTVYLQMNSLKPEDTAVYYCAAADYWFYYGYYLTMDYWGQGTQVTVSS | low polyreactivity
30 | QVQLVESGGGLVHAGGSLRLSCAASGFTFTFYAMGWYRQAPGKERELVATISSNGGSTYYADSVKGRFTISRDNAKNTVYLQMNSLKPEDTAVYYCAAITSYYGYYYWGQGTQVTVSS | high polyreactivity
31 | QVQLVESGGGLVQAGGSLRLSCAASGNTFDEYAMGWYRQAPGKEREFVAAIRNTYYADSVKGRFTISRDNAKNTVYLQMNSLKPEDTAVYYCAKPSQLHPYEYWGQGTQVTVSS | low polyreactivity
32 | QVQLVESGGGLVQAGGSLRLSCAASGFIFAKYVMGWYRQAPGKERELVAAISRSGGSTYYADSVKGRFTISRDNAKNTVYLQLNSLKPEDTAVYYCAADQTTTGGMDYWGQGTQITVSS | high polyreactivity
33 | QVQLVESGGGLVQAGGSLRLSCAASGFIFAYYAMGWYRQAPGKERELVAAISSGGRTYYADSVKGRFTISRDNAKNTVYLQMNSLKPEDTAVYYCAAYYRLDYDYWGQGTQVTVSS | high polyreactivity
34 | QVQLVESGGGLVQAGGSLRLSCAASGLTITSNAMGWYRQAPGKERELVASITWSGGSTSYADSVKGRFTISRDNAKNTVYLQMNSLKPEDTAVYDCAADRQRSHRVGTKGHRVGYWGQGTQVTVSS | high polyreactivity
35 | QVQLVESGGGLVQAGGSLRLSCAASGSTFTWNAMGWYRQAPGKERELGASISGRGGSTYYADSVKGRFTISRDNAKNTVYLQMNSLKPEDTAVYYCAARGVSYHYPSGYDYWGQGTQVTVSS | high polyreactivity
36 | QVQLVESGGGLVQAGGSLRLSCAASGSIFRVYAMGWYRQAPGKERELVAAISWGRGTTYYADSVKGRFTISRDNAKNTVYLQMTSLKPEDTAVYYCAAGGVGAYDYWGQGTQVTVSS | high polyreactivity
37 | QVQLVESGGGLVQAGGSLRLSSAASGRNYPKYAMGSYRQAPGKERELVAAISQRGGSTYYADSVKGRFTISRDNAKNTVYLQMNSLKPEDTAVYYCAASYYRQSGEYDYWGQGTLVTVSS | low polyreactivity
38 | QVQLVESGGGLVQAGGSLRISSAASGRIFRVNGIGWYIQAPGKERELVAAIRRSGGSTYYADSVKGRFTISRDNAKNSVYLLMNILKPDDTAVYFCAAPVRQSSYTRYDSWGQGTQVTVSS | high polyreactivity
39 | QVQLVESGGGLVQAGGSLRLSCAASGSIFWSNAMGWYRQEPVKEREMVARISTSGGRTYYADSVKGRFTISRDNAKNTVYLQMNSLKPEDTAVYYCADDPYRWYYSTFYYWGQGTQVTVSS | high polyreactivity
40 | QVQLVESGGGLVQAGGSLRLSCAASGITFSRYAMGWYRQAPGKERELVAAISKRGGRTYYADSVKGRFTISRDNAKKTDYLQMNSLKPEDTAVYYCATDYYVSTDYNYWGQGTQVTVSS | high polyreactivity
41 | QVQLVESGGGLVQAGGSLRLSCAASGRIFVHYVMGWYRQAPGKERELVAAISRSGGRTYYADSVKGRFTISRDNAKNTVYLQMNSLKPEDTAVYYCATDASTYKYDYWGQGTQVTVSS | high polyreactivity
42 | QVQLQESGGGLVQAGGSLRLSCAASGYISSWYPMGWYRQAPGKEREFVATIAPGATPYYADSVKGRFTISRDYAKNTVYLQMNSLKPEDTAVYYCAAGPENNDFYSYWGQGTQVTVSS | low polyreactivity
43 | QVQLVESGGGLVQAGGSLRLSCAASGRIFSYFAMGWYRQAPGKEWELVAASSGNGGSTYYADSVKGRFTISRDNAKNTVYLHMNSLKPEDTAVYYCAADWRSSDWAYLYPYSYDDWGQGTQVTVSS | low polyreactivity

Source: the nanobody polyreactivity screen of Harvey et al. (2022)
